No end group written: not given here.
B5: delta-type opioid receptor (DOR) (receptor, UniProt P41143 1-372, looked up)
chain: MEPAPSAGAELQPPLFANASDAYPSACPSAGANASGPPGARSASSLALAIAITALYSAVCAVGLLGNVLVMFGIVRYTKMKTATNIYIFNLALADALATSTLPFQSAKYLMETWPFGELLCKAVLSIDYYNMFTSIFTLTMMSVDRYIAVCHPVKALDFRTPAKAKLINICIWVLASGVGVPIMVMAVTRPRDGAVVCMLQFPSPSWYWDTVTKICVFLFAFVVPILIITVCYGLMLLRLRSVRLLSGSKEKDRSLRRITRMVLVVVGAFVVCWAPIHIFVIVWTLVDIDRRDPLVVAALHLCIALGYANSSLNPVLYAFLDENFKRCFRQLCRKPCGRPDPSSFSRAREATARERVTACTPSDGPGGGAAA
notes: whole, on cells; C-terminally SmBiT-tagged in the NanoBiT assays; also called OPRD; DOP

Columns and labels:
[1] = target: T1, human atypical chemokine receptor 3 (ACKR3) (human, UniProt P25106 1-362); experiment: cell-based or functional assay
T1 sequence (P25106 whole entry): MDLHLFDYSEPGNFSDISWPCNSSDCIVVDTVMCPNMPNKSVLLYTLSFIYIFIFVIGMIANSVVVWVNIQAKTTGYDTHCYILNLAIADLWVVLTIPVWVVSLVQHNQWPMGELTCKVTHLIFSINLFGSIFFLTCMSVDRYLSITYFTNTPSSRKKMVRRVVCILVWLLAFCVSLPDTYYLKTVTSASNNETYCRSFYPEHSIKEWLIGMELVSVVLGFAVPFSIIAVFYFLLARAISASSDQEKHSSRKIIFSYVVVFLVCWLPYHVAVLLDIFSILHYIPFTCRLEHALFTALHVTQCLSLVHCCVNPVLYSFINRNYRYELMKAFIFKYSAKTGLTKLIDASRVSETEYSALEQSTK

[2] = target: mu-type opioid receptor (MOR) (UniProt P35372 1-400); experiment: cell-based or functional assay
Chain of mu-type opioid receptor (MOR) (P35372 whole entry): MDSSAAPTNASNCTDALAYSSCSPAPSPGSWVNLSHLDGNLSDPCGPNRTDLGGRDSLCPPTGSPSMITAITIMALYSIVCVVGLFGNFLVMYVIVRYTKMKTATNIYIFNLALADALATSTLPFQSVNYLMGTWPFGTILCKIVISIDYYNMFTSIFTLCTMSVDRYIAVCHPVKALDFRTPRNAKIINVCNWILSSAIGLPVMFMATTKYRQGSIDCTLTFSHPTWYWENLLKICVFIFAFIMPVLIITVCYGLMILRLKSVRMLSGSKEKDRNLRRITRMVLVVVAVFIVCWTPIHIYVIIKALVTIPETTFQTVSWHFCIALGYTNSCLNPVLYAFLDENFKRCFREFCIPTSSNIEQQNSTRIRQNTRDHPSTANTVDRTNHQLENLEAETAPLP

[3] = target: B5; experiment: cell-based or functional assay
[4] = target: kappa-type opioid receptor (KOR) (UniProt P41145 1-380); experiment: cell-based or functional assay
Chain of kappa-type opioid receptor (KOR) (P41145 whole entry): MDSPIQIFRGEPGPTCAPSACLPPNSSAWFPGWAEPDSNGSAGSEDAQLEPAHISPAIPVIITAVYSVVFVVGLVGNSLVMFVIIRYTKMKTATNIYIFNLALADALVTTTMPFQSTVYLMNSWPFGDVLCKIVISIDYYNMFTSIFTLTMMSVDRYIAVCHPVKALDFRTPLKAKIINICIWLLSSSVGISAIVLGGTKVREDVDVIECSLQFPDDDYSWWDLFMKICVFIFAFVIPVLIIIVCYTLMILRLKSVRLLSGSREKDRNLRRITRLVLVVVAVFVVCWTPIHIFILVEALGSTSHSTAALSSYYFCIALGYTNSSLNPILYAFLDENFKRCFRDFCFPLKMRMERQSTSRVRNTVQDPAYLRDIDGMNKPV

[5] = target: T1, human atypical chemokine receptor 3 …; experiment: flow cytometry competition with 5 nM CXCL12-AF647 on U87-ACKR3 cells
From the text: Dead cells were excluded using Zombie Green viability dye (BioLegend). […] Ligand binding was quantified by mean fluorescence intensity on a BD FACS Fortessa cytometer (BD Biosciences).

[6] = target: T2, C-X-C motif chemokine receptor 4 (CXCR4) (UniProt P61073 1-352); experiment: flow cytometry, labelled peptide on U87-CXCR4 cells
T2 construct: whole, on cells; Stably expressed in U87 cells (U87-CXCR4); C-terminally SmBiT-tagged in the NanoBiT assays
T2 sequence (P61073 whole entry): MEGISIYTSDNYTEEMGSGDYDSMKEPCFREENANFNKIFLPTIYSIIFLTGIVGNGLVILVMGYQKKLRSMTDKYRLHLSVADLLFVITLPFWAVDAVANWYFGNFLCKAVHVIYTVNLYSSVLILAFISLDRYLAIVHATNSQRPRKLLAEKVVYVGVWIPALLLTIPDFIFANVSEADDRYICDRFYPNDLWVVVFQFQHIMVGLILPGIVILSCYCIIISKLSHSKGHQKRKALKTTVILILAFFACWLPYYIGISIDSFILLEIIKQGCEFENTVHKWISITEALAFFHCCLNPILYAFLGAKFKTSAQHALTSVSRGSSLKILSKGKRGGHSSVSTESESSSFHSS

[7] = target: T3, human β-arrestin-1 N-terminally fused to LgBiT (human, UniProt P49407 1-418); experiment: NanoBiT complementation in U87 cells (receptor-SmBiT, LgBiT-β-arrestin-1), induced by adrenorphin
T3 construct: Co-expressed in U87 cells with SmBiT-tagged receptors; also called LgBiT-beta-arrestin-1; not shown: LgBiT (NanoBiT, Promega)
T3 sequence (P49407 whole entry, the tested form may be a part): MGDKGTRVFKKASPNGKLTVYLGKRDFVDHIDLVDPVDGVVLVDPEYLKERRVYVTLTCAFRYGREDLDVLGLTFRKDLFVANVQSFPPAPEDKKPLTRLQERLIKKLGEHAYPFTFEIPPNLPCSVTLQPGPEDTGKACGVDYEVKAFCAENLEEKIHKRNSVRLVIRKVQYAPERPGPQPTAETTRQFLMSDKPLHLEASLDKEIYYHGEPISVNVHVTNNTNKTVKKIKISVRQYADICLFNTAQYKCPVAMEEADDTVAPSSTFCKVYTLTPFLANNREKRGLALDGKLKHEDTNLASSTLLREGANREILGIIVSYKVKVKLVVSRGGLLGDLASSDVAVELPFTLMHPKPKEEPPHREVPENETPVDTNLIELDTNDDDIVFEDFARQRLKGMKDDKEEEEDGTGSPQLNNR
Method: 48 hours post-transfection cells were harvested, incubated 25 minutes at 37° C. with Nano-Glo Live Cell substrate diluted 200-fold and distributed into white 96-well plates (5×10⁴ cells per well). Ligand-induced, β-arrestin and mG recruitment to GPCRs was evaluated with a Mithras LB940 luminometer (Berthold Technologies) for 20 minutes. For concentration-response curves, the signal recorded with a saturating concentration of full agonist for each receptor was set as 100%.

B1: LIH383, octapeptide FGGFMRRK (SEQ ID NO: 3; NH2-substituted at C-terminus) (peptide)
peptide: H-FGGFMRRK-NH2
[1]
  EC50, β-arrestin recruitment (NanoBiT): 0.61 nM

B2: adrenorphin Y1F variant (SEQ ID NO: 35; NH2-substituted at C-terminus) (peptide)
peptide: FGGFMRRV-NH2
[2]
  fold reduction of potency against WT adrenorphin, β-arrestin-1 recruitment: > 100 fold
[3]
  fold reduction of potency against WT adrenorphin, β-arrestin-1 recruitment: > 100 fold
[4]
  fold reduction of potency against WT adrenorphin, β-arrestin-1 recruitment: > 100 fold
[1]
  fold change of potency against WT adrenorphin, β-arrestin-1 recruitment: 10 fold

B3: dynorphin 2-17 (SEQ ID NO: 19) (peptide)
peptide: GGFLRRIRPKLKWDNQ
[5]
  binding result: binds

B4: Cy-5-labelled LIH383 (peptide)
peptide: FGGFMRRK
modifications: also: Cy5 label, site not given here
notes: also called LIH383-Cy5; fluorescently labelled LIH383
[6]
  binding result: no binding

## B5
[7]
  binding result: binds

B6: dynorphin 2-13 (SEQ ID NO: 20; NH2-substituted at C-terminus) (peptide)
peptide: GGFLRRIRPKLK-NH2
[5]
  binding result: binds

Source: patent US20220236279A1 (LUXEMBOURG INSTITUTE OF HEALTH LIH, published 2022)
